These results are taken from patent US20210047398A1, “ASPROSIN, A FAST-INDUCED GLUCOGENIC PROTEIN HORMONE” (Baylor College of Medicine, priority 2016, published 2021).

Series [1] deals with mouse primary hepatocytes. As for the experimental part: (§1) Cell Culture. Primary mouse hepatocytes were isolated from 8- to 12-week-old WT mice using standard methodology. […] The cells were treated with 50 nM recombinant asprosin or GFP for 10 minutes for cAMP and PKA assays and for 2 hours for the in vitro glucose production assay. Cells were pretreated with various inhibitors for 1 hour prior to treatment with asprosin, GFP, Glucagon or Epinephrine. cAMP was measured from cell lysates using the cAMP direct immunoassay kit from Cell Biolabs. PKA activity was measured from cell lysates using the PKA kinase activity kit from Enzo Lifesciences, Inc. Media glucose content was measured using the Glucose Colorimetric Assay Kit from Biovision. Results were normalized to protein content.

Series [2] has as its system mouse primary hepatocytes. Description: In vitro glucose production assay (media glucose accumulation). The settings on record: 2 hours, 0-1100 nM recombinant asprosin. How it is done: as §1
Series [3] can be described thus: Plasma His-tag sandwich ELISA after subcutaneous injection. In kind it is in vivo, mice. The note with it: 30 μg subcutaneous injection. As for the experimental part: FIGS. 22A-22E: Asprosin traffics to the liver in vivo and binds the hepatocyte surface with high affinity in a saturable and competitive manner. (FIG. 22A) SPECT scans were performed 15 minutes after intravenous injection with 150 μCi I125-asprosin, boiled I125-asprosin, or free I125 in live, anesthetized mice previously injected with bismuth as a hepatic contrast agent. 3 representative images are shown in axial and coronal planes. (FIG. 22B) Liver asprosin accumulation was measured as liver photon intensity from mice in (FIG. 22A). (FIG. 22C) Tissue radioactivity (normalized to tissue weight) was measured using a γ-counter after sacrificing mice from (FIG. 22A), 45 minutes following injection (n=4 mice). (FIG. 22D) Sandwich ELISA was used to measure plasma His tag (recombinant asprosin contains an N-terminal His tag) in WT mice before injection and 15, 30, 60 and 120 minutes after injection with 30 μg recombinant asprosin. The time taken for peak signal to fall to half-maximal level is indicated by the arrow. […] Specific binding (shown in red) was calculated as the difference between the two curves. Data are represented as the mean±SEM.
Sandwich ELISA and Western Blot. […] Increasing amounts of recombinant asprosin (which contains an N-terminal His tag) were used to generate a standard curve for both assays. EDTA-plasma was used for plasma sandwich ELISAs and serum-free DMEM concentrated using Vivaspin protein concentrator spin columns by GE Life Sciences Inc. was used for media sandwich ELISAs.
Background: ELISA stands for enzyme-linked immunosorbent assay.

The conditions of series [4]: bacterially-generated version (Romere et al., 2016); cited from earlier work.
The nature of series [5]: Plasma asprosin, glucose, insulin and hormones in mice after asprosin gain-of-function. Type of series: in vivo. As for the experimental part:
Animals. […] MgR heterozygous mice were obtained from Jackson labs, and bred to obtain male MgR homozygous mice and WT littermates. 5-week-old male Ob/Ob mice were obtained from Jackson labs. […] For diet induced obesity studies, mice were placed on the adjusted calories diet providing 60% of calories from fat by Harlan-Teklad for 12 weeks. […] Mice were exposed to 30 μg recombinant His-tagged asprosin or recombinant Green Fluorescent Protein (GFP) daily for 10 days via subcutaneous injection. Mice were sacrificed and plasma and various organs were isolated 10 days after virus or peptide injection. For single dose injections, the same protocol was followed as that for daily injections, followed by collection of plasma at the indicated times via tail bleeds for insulin and glucose measurement. Insulin and glucose tolerance tests (ITT and GTT) were performed using standard procedures. […] For immunologic sequestration experiments, mice were injected intra-peritoneally with a 500 μg dose in saline of a custom-built (Thermo Scientific Inc.) anti-asprosin mouse monoclonal antibody directed against amino acids 106-134 (human profibrillin amino acids 2837-2865) or an equivalent dose of isotype matched IgG (Southern Biotech, Inc.). […] The Baylor College of Medicine Institutional Animal Care and Utilization Committee approved all experiments.
Plasma metabolic parameters. Human plasma insulin was measured using a human insulin ELISA kit by Abcam. Mouse plasma insulin was measured using a mouse insulin ELISA kit by Millipore. Mouse plasma glucagon, epinephrine, norepinephrine and corticosterone were measured by the Vanderbilt University Hormone Assay & Analytical Services Core.

Series [6] is described as follows: Body composition, plasma parameters, histology, GTT and ITT in WT mice with increased circulating asprosin. Type of series: in vivo. As for the experimental part:
Animals—10-week old male WT C57/Bl6 mice were used for all in vivo studies. […] Mice were injected with 2.6 micro molar recombinant His tagged Asprosin or recombinant GFP daily for 10 days via subcutaneous injection. Mice were sacrificed and plasma and various organs were isolated 10 days after viral infusion or peptide injection. The Baylor College of Medicine Institutional Animal Care and Utilization Committee approved all experiments.
Body composition and Serum analyses—Body composition was analyzed with the ECHO-MRI system (Echo medical systems, Texas). Mouse serum was prepared from blood obtained through cardiac puncture and analyzed with the COBAS Integra 400 plus analyzer (Roche). Plasma leptin, FFA, adiponectin and triglyceride levels were measured by using a Mouse Leptin ELISA Kit (Millipore), NEFA C Test Kit (Wako), Mouse Adiponectin ELISA Kit (Millipore) and Serum/plasma triglyceride detection kit (Sigma), respectively.
Histology—Mouse inguinal adipose tissue samples were fixed in 10% formaldehyde for H&E staining. Frozen livers were used for oil-red-O staining to evaluate hepatic triglyceride content.
Blood glucose levels were measured using a glucometer (Life Scan).

Where [7] appears, read: 2 hours after single 30 μg dose.
The mark [8] stands for this setting: both experiments, 10 days, 4-hour fasted.

Where two headings read alike, the source gives them in different places.

B1: recombinant asprosin: 146 amino acid E. coli expressed fusion protein: 6 amino acid N-terminal His tag and 140 amino acid wild type asprosin (FBN1 2732-2871) (protein)
chain: HHHHHHSTNETDASNIEDQSETEANVSLASWDVEKTAIFAFNISHVSNKVRILELLPALTTLTNHNRYLIESGNEDGFFKINQKEGISYLHFTKKKPVAGTYSLQISSTPLYKKKELNQLEDKYDKDYLSGELGDNLKMKIQVLLH
Regarding B1, the “hepatocyte PKA activity, dose response” value in series [1] is “increased in a dose responsive manner”. Further, the media glucose concentration result in series [2] is listed as “increase in glucose concentration in a dose-dependent manner”. The plasma half-life result in series [3] (His-tag ELISA) was “approximately 20 minutes”. For the same molecule, in series [3] (mice), the “peak level in plasma” value was 50 nM and the “time of peak level after injection” value is 20 min. The plasma half-life in series [4] is ~20 min. Moreover, in series [5] (15-20 minutes after single 30 μg dose), the “plasma levels of catabolic hormones (glucagon, catecholamines, glucocorticoids)” value was “no effect”. Further, the plasma insulin result in series [5] (15 minute time-point after single dose, 2-hour fast) is “compensatory hyperinsulinemia”. Further, in series [5] (setting [7]), the “glucose uptake in peripheral organs in glucose- and insulin-tolerance tests” value is given as “little evidence of altered glucose uptake”; the “peak glucose levels in glucose- and insulin-tolerance tests” value is reported as “altered peak glucose levels”. Also, the “glucose and insulin levels” value in series [5] (10 days of exposure, 2-hour fasted mice) is on record as “elevated”. The “blood glucose levels after a single dose” value in series [5] (single 30 μg subcutaneous dose, 2-hour preceding fast) is “immediate spike”. The “time to normalized blood glucose levels post injection” value in series [5] (single dose, 2-hour fast) was ≤ 60 min. For the same molecule, in series [5] (single dose, overnight preceding fast, otherwise similar results), the “rate of the blood glucose spike” value is reported as “somewhat slower”. In series [5] (single subcutaneous administration, overnight fasted MgR mice), the “insulin deficit of MgR mice” value was “sufficient to completely rescue the insulin deficit”. The “blood glucose in insulin tolerance test” value in series [6] (60 minute mark, GFP mice had severe hypoglycemia) was “maintained their blood glucose levels”. Moreover, in series [6] (10 days, FIGS. 5G-5J), the “glucose and insulin tolerance tests” value is on record as “consistent with a diabetogenic effect”. Moreover, in series [6] (both experiments (FBN1 adenovirus; daily subcutaneous asprosin), 10 days), the “fat cell volume, inguinal white fat microscopy” value was “larger fat cell volume”. In addition, in series [6] (setting [8]), the “plasma leptin and adiponectin” value is given as “higher levels”; the “plasma triglycerides and free fatty acids” value is recorded as “lower levels”. In series [6] (fasted mice, 10 days, FIGS. 11A-11D), the “plasma glucose and insulin” value is “hyperglycemia and hyperinsulinemia”. Besides, the “fat mass (MRI)” value in series [6] (ten days of daily subcutaneous injection, vs GFP injection) is given as “significant increase”. The “lean mass (MRI)” value in series [6] (ten days of daily subcutaneous injection, same in GFP injected mice) was “slight but significant decrease”.
